The source of these data is article PMC9637641.

The target in assay [1] is OG488-TFPIα-BR. Put plainly: fluorescence polarisation; steady-state fluorescence anisotropy; FV species or APCi titrated (0–100 nM) into 25 nM OG488-TFPIα-BR and 50 μM PCPS vesicles in HBS/Ca2+/PEG, pH 7.4 (20 mM Hepes, 150 mM NaCl, 5 mM CaCl2, 0.1% PEG-8000), 25 °C; fit to a model for tight binding. (In general: Fluorescence polarisation rises when a labelled molecule tumbles more slowly, as on binding a larger partner.)

Assay [2] has as its target FV-BR fragment (human) (UniProt P12259).
In assay [3] the target is OG488-TFPIα-BR.

FV-BR fragment (human), sequence (P12259 979-1036): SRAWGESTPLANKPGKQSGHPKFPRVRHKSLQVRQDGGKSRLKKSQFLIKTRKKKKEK
Human FVa, sequence (P12259 29-737): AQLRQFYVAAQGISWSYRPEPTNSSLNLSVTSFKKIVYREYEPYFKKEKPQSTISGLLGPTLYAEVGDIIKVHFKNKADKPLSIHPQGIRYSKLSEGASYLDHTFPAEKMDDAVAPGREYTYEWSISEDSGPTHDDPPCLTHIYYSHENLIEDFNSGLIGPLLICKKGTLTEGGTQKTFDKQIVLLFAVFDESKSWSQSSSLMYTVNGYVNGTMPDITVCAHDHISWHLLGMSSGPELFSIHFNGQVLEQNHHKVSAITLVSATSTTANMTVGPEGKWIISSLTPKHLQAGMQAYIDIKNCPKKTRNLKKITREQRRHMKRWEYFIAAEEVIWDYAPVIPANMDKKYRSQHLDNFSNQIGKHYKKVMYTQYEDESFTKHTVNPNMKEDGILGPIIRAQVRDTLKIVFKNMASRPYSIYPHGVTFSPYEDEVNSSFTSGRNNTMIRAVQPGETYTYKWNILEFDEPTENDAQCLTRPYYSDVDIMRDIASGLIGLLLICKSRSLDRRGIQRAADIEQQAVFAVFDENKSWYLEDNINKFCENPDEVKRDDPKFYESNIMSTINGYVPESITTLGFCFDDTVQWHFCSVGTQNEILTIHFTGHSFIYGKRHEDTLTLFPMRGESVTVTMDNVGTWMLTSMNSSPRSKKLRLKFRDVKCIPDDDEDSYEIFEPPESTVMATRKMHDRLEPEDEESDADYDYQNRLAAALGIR
Human FVa, sequence (P12259 1574-2224): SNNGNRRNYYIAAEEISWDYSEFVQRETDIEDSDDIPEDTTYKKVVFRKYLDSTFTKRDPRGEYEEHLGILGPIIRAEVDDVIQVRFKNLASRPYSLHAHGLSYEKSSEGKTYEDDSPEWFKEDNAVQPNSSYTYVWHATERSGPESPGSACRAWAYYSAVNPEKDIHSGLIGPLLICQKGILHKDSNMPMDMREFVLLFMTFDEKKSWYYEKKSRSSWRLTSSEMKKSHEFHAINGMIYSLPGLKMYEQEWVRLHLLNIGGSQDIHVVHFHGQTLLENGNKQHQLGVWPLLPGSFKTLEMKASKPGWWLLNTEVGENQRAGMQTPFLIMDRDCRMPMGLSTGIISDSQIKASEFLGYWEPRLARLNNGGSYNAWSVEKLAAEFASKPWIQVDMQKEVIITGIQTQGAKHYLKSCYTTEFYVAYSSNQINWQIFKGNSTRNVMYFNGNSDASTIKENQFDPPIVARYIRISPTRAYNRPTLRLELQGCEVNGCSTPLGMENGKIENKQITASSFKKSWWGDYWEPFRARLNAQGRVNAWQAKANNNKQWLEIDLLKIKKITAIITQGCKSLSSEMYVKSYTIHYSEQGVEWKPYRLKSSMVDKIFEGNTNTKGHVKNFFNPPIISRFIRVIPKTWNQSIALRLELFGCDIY

With FV-810-R506Q, in assay [1], the Kd (in general, a measure of binding affinity in units of concentration) came out at 1.72 nM and the stoichiometry N (in general, the number of molecules, sites or subunits per partner or assembly) stood at 1.43 mol/mol.
Regarding FV-810, the Reduced fold change of inactivation by APC, +FV-BR (kobs no BR divided by kobs +BR; % peak thrombin in TGA; 20 nM FV species, 250 nM BR fragment, 1 nM APC) in assay [2] was determined as 17 fold. This substance also had a Reduced fold change of inactivation by APC, +TFPIα-BR (kobs no BR divided by kobs +BR; % peak thrombin in TGA; 20 nM FV species, 250 nM BR fragment, 1 nM APC) in assay [3] of 17 fold. In assay [1], this substance had a Kd of 1.78 nM and a stoichiometry N of 1.29 mol/mol.
In assay [1], FV-810-R306Q gave a Kd of 2.15 nM and a stoichiometry N of 1.44 mol/mol.
For the substance FV-short (natural protein), the Reduced fold change of inactivation by APC, +FV-BR (kobs no BR divided by kobs +BR; % peak thrombin in TGA; 20 nM FV species, 250 nM BR fragment, 1 nM APC) in assay [2] came to 15.7 fold.
With “FV-s46 (from UniProt P12259 29-990; P12259 1037-2224)”, in assay [1], the equilibrium dissociation constant (Kd) stood at 2.17 nM and the stoichiometry N amounted to 1.78 mol/mol.
“Human FVa (from UniProt P12259 29-737; P12259 1574-2224) (complex)”: in assay [2], the Reduced fold change of inactivation by APC, +FV-BR (kobs no BR divided by kobs +BR; % peak thrombin in TGA; 20 nM FV species, 250 nM BR fragment, 1 nM APC) turned out to be 0.9 fold.
In assay [1], FV-810-R306Q/R506Q came in with a Kd of 2.46 nM and a stoichiometry N of 1.18 mol/mol.
